Reference: patent publication US20250361314A1 (SHANGHAI HUAOTA BIOPHARMACEUTICAL, published 2025)

T1: Human CD73 on CHOK1-huCD73-3F4 cells overexpressing CD73 (human, UniProt P21589 27-549)
T1 sequence (looked up): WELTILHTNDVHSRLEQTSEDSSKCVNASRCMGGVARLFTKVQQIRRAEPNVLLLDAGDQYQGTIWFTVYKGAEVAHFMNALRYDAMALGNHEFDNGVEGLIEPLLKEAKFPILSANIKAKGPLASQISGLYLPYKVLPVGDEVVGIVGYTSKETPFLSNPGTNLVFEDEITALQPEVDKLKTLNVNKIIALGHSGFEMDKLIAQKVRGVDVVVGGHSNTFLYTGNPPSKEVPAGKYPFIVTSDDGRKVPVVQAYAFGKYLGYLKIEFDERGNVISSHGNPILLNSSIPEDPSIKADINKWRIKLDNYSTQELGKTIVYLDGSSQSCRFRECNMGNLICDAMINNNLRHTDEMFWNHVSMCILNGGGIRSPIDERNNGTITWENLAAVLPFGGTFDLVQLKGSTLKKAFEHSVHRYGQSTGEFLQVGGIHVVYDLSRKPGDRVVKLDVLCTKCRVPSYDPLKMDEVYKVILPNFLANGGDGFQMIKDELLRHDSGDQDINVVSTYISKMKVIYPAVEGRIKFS

T2: Mouse CD73 antigen (mouse, UniProt Q61503 29-549, limits assumed)
T2 construct: Antigen used as analyte in SPR
T2 sequence (looked up): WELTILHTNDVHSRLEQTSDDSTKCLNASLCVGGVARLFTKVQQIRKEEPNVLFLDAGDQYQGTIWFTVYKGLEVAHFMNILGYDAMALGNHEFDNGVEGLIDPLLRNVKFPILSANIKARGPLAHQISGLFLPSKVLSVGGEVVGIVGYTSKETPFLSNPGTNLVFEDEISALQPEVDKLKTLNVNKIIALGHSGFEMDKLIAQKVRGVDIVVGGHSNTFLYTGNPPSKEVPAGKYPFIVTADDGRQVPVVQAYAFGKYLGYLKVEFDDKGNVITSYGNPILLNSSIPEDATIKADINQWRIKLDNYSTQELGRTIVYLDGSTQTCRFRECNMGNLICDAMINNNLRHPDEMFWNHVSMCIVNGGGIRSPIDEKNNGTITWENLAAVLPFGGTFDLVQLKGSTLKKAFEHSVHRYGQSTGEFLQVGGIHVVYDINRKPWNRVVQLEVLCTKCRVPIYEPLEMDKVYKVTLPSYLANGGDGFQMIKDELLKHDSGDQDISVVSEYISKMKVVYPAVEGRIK

T3: Mouse CD39 antigen (mouse, UniProt P55772 38-478)
T3 construct: Antigen used as analyte in SPR
T3 sequence (looked up): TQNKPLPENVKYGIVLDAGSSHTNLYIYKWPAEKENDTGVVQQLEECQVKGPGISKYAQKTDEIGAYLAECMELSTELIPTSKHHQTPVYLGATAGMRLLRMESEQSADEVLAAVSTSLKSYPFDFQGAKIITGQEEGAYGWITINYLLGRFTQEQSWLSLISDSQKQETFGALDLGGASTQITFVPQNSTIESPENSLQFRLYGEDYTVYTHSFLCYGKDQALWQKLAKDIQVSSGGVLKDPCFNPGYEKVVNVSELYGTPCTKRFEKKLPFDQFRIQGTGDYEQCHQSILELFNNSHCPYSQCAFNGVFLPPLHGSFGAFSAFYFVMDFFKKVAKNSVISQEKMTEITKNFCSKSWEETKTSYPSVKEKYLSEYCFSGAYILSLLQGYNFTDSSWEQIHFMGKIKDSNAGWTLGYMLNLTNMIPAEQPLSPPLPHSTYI

B1: CD39/CD73 bispecific antibody 700038 (CD39-VHH-CD73-IgG) (bispecific antibody)
heavy: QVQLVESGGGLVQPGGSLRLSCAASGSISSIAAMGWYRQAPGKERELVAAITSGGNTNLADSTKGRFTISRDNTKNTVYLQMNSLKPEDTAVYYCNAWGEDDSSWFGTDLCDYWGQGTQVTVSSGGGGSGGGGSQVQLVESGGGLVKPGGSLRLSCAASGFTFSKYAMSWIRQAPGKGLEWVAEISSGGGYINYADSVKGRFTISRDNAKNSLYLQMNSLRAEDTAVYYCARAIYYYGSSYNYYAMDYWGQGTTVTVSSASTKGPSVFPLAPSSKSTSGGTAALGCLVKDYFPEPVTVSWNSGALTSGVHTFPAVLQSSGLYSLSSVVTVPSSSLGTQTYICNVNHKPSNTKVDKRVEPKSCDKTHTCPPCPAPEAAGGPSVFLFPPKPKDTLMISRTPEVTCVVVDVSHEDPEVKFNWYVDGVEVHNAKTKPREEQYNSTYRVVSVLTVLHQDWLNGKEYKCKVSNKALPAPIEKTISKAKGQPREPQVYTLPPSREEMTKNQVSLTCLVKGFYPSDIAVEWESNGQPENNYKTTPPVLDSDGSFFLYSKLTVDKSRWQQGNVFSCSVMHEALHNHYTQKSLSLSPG
light: DIQMTQSPSSLSASVGDRVTITCRASQDVGTAEAWYQQKPGKAPKLLIYWASTRHTGVPSRFSGSGSGTDFTLTISSLQPEDFATYYCQQYSSYPLTFGQGTKLEIKRTVAAPSVFIFPPSDEQLKSGTASVVCLLNNFYPREAKVQWKVDNALQSGNSQESVTEQDSKDSTYSLSSTLTLSKADYEKHKVYACEVTHQGLSSPVTKSFNRGEC
B2: CD39/CD73 bispecific antibody 700035 (CD39-VHH-CD73-IgG) (bispecific antibody)
heavy: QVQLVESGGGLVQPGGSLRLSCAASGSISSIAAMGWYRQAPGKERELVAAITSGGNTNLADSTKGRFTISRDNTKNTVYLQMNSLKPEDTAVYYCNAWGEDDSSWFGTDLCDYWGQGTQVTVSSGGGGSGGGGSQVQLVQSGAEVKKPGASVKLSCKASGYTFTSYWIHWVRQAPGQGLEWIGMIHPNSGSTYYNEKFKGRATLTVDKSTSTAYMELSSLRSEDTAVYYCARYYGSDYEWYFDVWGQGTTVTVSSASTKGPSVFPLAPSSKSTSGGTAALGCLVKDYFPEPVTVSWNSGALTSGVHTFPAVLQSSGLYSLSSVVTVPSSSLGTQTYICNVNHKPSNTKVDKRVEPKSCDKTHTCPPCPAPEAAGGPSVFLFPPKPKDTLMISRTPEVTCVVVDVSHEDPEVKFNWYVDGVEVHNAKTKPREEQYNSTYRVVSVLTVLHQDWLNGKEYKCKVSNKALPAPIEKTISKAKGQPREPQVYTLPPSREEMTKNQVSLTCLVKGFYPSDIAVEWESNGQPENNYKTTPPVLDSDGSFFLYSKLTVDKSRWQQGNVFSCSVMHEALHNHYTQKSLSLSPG
light: DIQMTQSPSSMSASVGDRVTITCKASQNVRTAVVWYQQKPGKAPKALIYLASNRHTGVPDRFSGSGSGTDFTLTISSLQPEDFATYFCLQHWNYPYTFGQGTKLEIKRTVAAPSVFIFPPSDEQLKSGTASVVCLLNNFYPREAKVQWKVDNALQSGNSQESVTEQDSKDSTYSLSSTLTLSKADYEKHKVYACEVTHQGLSSPVTKSFNRGEC

Columns and labels:
[1] = molecular target: soluble recombinant protein CD73; experiment: cell-based or functional assay
[2] = molecular target: T1, Human CD73 on CHOK1-huCD73-3F4 cells …; experiment: cell-based or functional assay
Mouse CD73 antigen = molecular target: T2, Mouse CD73 antigen; experiment: SPR (Biacore 8K), antibody captured on anti-human capture CM5 chip, antigen as analyte
Procedure: (§1) The experimental method is as follows:
(§2) An Anti-Human Capture-CM5 chip (GE, #BR-1005-30) was prepared using coupling methods of a Human Antibody Capture Kit (GE, #BR-1008-39) and an amino coupling kit (GE, BR-1000-50). The chip was equilibrated at room temperature for about 20-30 min and loaded into a Biacore 8K instrument. The antigen and antibody were diluted to an experimental working concentration using an equilibration buffer. The antigen was diluted with an equilibrium buffer to 50 nM, and then diluted three-fold for seven concentration gradients, and two zero concentrations (i.e., the equilibrium buffer) and one repeat concentration (typically the lowest concentration repeat) were set. Experimental analysis was performed on 10 antigen concentrations (2 zero concentrations, 7 gradient concentrations, and 1 repeated concentration) in a cyclic manner according to an order of antibody, antigen, and regeneration. The antigen injection flow rate was 30 μL/min, the binding time was 120 s, and the dissociation time was 600 s. Following the analysis, the data was analyzed using the corresponding analysis program to confirm that there was no obvious reference binding. Using Kinetics and a 1:1 binding model, the data was fit to obtain the kinetic related parameters Ka, Kd, and KD values of the bispecific antibodies.

Mouse CD39 antigen = molecular target: T3, Mouse CD39 antigen; experiment: as above
Procedure: as §1, §2

soluble recombinant protein CD73, sequence (P21589 whole entry): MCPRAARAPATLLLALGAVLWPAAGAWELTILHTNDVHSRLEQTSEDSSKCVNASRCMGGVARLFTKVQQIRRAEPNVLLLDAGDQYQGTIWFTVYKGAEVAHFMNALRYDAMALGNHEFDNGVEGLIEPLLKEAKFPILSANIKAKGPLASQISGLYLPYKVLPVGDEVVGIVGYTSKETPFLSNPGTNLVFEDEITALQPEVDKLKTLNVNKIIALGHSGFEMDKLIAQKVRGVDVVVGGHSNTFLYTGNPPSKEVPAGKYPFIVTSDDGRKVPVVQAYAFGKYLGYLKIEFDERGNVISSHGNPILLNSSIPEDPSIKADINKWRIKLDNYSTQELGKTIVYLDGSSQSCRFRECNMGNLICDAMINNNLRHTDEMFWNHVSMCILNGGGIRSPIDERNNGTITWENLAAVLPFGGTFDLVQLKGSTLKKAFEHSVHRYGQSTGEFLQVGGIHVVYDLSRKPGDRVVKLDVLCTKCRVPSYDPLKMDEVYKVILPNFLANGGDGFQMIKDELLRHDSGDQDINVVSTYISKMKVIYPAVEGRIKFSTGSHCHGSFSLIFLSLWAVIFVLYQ

Row | Binder | EC50 (µg/mL), inhibition of enzyme activity of soluble CD73 protein (CellTiter Glo) [1] [µg/mL] | EC50 (µg/mL), inhibition of enzyme activity of membrane CD73 on CHOK1-huCD73-3F4 cells (CellTiter Glo) [2] [µg/mL] | binding result (Mouse CD73 antigen) | binding result (Mouse CD39 antigen)
1 | B1 | 1.85 |  |  | 
2 | B2 |  | 0.615 | no binding (tested: 50 nM (highest antigen concentration)) | no binding (tested: 50 nM (highest antigen concentration))
